Reference: the nanobody polyreactivity screen of Harvey et al. (2022)

Experiment: yeast display, Sf9 membrane polyspecificity reagent, FACS + sequencing; frameworks hold sequencing errors
In short: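 Nanobodies from a synthetic yeast display library (Saccharomyces cerevisiae BJ5465), induced 36–48 hours with galactose, were stained 1 hour at 4 °C with 10% biotinylated, detergent-solubilized Sf9 membrane reagent, enriched on streptavidin microbeads, then FACS-sorted. Anti-HA (expression) and streptavidin (reagent binding) fluorescence set low and high (top ~1%) gates. Polyreactivity labels come from the gate of origin. Genes were colony-PCR amplified, MiSeq 2 × 250 sequenced and filtered by CDR length.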

Row | Sequence | polyreactivity (PSR sort gate)
1 | QVQLVESGGGLVQAGGSLRLSCAASGFTFVRYAMGWYRQAPGKERELVAAISRRGGSTYYADSVKGRFTISRDNAKNTVYLQMNSLKPEDTAVYYCAARAPYRRVRMNYWGQGTQVTVSS | high polyreactivity
2 | QVQLVESGGGLVQAGGSLRLSCAASGRIFDRYGMGWYRQAPGKERELLAAITSRGGSTYYADSVKGRFTISRDNAKNTVYLQMNSLKPEDTAVYYCAAYGRYGFGRVERYDYWGQGTQVTVSS | high polyreactivity
3 | QVQLVESGGGLVQAGGSLRLSCAPSGRIFEIYAMGWYRQAPGKESELVAAISWRGVSTYYADSVKGRFTISRDNAKNTVYLQMNSLKPEDTAVYYCNKDVDYFWYVEYDYWGQGTQVTVSS | low polyreactivity
4 | QVQLVESGGGLVQAGGSLRLSCAASGRIFVSNVMGWYRQAPGKERELVATITWSDGSTYYADSVKGRFTISRDNAKNTVYLQMNSLKPEDTAVYYCNVDQYTYVDLYWEYYFWGQGTQVTVSS | low polyreactivity
5 | QVQLVESGGGLVQAGGSLRLSCAASGLTFGDNAMGWYRQAPGKERELVAAITTSGPSTYYADSVKGRFTISRDNAKNTVYLQMNSLKPEDTAVYYCAADGLFYWVQYGYWGQGTQVTVSS | low polyreactivity
6 | QVQLVESGGGLVQAGGSLRLSCAASGLIFSRYTMGWNRQAPGKERELVAAISRSGTNTYYADSVKGRFTISRDNAKNTVYLQMNSLKPEDTAVYYCAARGYYRDYDSWGQGTQVTVSS | high polyreactivity
7 | HVQLVESGGGLVQAGGSLRLSCAASGSIFILYAMGWSRQAPGKERELLASISSSGGRTYYADSVKGRFTISRDNAKNTVYLQMNSLKPEDTAVYYCNAVGRYWSYGTIYDYWGHGTQVTVSS | high polyreactivity
8 | QVKLVESGGGLVQAGGSLRLICAASGFTFRYYTMGWYRQAPGKARELVAAISRSSGSRTYYADSVKGRFTISRDNAKNTVYLQMNSLKPEDTAVYYCNADPAYQFDYWGQGTQVTVSS | high polyreactivity
9 | QDQLVESGGGLVQAGGSLRLSCAASGSIFGWYAMGWYRQAPGKERELVAAITWSGGSTYYADSVKGRFTISRDNAKNTVYLQMNSRKPEDTAVYYCAATYYGYVGRYDYWGQGTQVTVSS | high polyreactivity
10 | QVHLVESGGGLVQAGGSLRLSCAASGLILGHYTMGWYRQAPGKERELVAAITSDGGSTYYADSVMGRFTISRDNAKNTVYLQMNSLKPEDTAVFYCAADLPAYTGYESDYWGQGTQVTGSS | low polyreactivity
11 | QVQLVESGGGLVQAGGSLRLSCAASGFIFTGYTMGWYRQAPGKERELVAAISYRGGSTYYSDSVKGRFTISRDNAKNTVYLQMNSLKPEDTEVYFCAAESIYFYEYDYWGQGTQVTVSS | high polyreactivity
12 | QVQLVESGGGLVQAGGSLRLSCAASGSTFFRYDMGWYRQAPGKERELVADINYNGGSTYYADSVKGRFTISRDNAKNTVYLQMNSLKPEDTAVYYCAAAYRVRGRTYDSWGQGTQVTVSS | high polyreactivity
13 | QVQLVESGGGLVQAGGSLRLSCAASGLIIRYYAMGWYRQAPGKERELVAAISYNGGSTYYADSVKGRFTISRDNAKNTVYLQMNSLKPEDTAVYYCAARGRYRIGPGRYGKRYDYWGQGTQVTVSS | high polyreactivity
14 | QVQLVESGGGLVQAGGSLRLSCAASGITFVANAMGWYRQAPGKERELVAGITQTGGSTYYADSVKGRFTISRDNAKNTVYLQMNSLKPEDTAVYYCAATYRRLRYGKLLYYWGQGTQVTVSS | high polyreactivity
15 | QVQLVESGGGLVQAGGSLRLSCAASGRTFGYNVMGWYTQAPGKERELVAGISESGGRTYYADSVKGRVTISRDNAKNTVYLQMNSLKPEDTAVYYCAKRYQRASYDYWGQGTQVTVSS | high polyreactivity
16 | QVQLVESGGGLVQAGGSLRLSCAPSGITFFYNTMGWYRQAPGKERELVAAISVSGGGTYYADSVKARFTISRDNAKNTVYLQMNSLKPEDTAVYYCNKVQVRQRRYDYWGQGTQVTVSS | low polyreactivity
17 | QVQLVESGGGLVQAGGSLRLSSPASGRTFGRYTMGWYRQAPGKESELVATISYNGGRTYYADSVKGRFTISRDNAKNTVYLQMNSRKPEDTAVNYCATRLPKSSLHDYWGQGTQVTVSS | high polyreactivity
18 | QDQLVESGGGLVQAGGSLRLSCAASGSTIPISVRGWYRQAPGKERELVAAITYSGGSTYYADSVKGRFTISRDNAKNTVYLQMNSLKPEDTAVYYCAAGVYRWHYLYKYTQRRVEYWGQGTQVTVSS | high polyreactivity
19 | QVHLVESGGGLVQAGVSLRLSCAASGSIFEGNGMGWYRQAPGKERELVAAITFRSGSTYYADSVKGRFTNSRDNAKNTVYLQMNSLKPEDTAVYYCAADEYYQVSAYDYWGQGTKVTVSS | low polyreactivity
20 | QVQLVESGGGLVKARGSLRLSCAASGFTFGSYAMGWYRQAPGKERELVAAITRGSGGTYYADSVKGRFTISRDNAKNTVYVQMNSLKPEDTAVYNCASCSRSRGALRFAHFDYWGQGTQGTVSS | high polyreactivity
21 | QVQLVESGGGLVQAGGSLRLSCAASGRTFYKNAMGWYRQAPGKEREFVASISVSGGRTYYADSVKGRFTISRDNAKNTVYLQMNSLKPEDTAVYYCNARASPLSQRDYWGQGTQVTVSS | low polyreactivity
22 | QVQLVESGGGLVQAGGSLRLSCAASGRTFLVNAMGWYRQAPGKERELVAAISQRGGSTDYADSVKGRFTISRDNAKNTVYLQMNSLKPEDTAVYYCAVRWGYLYDYWGQGTQVTVSS | low polyreactivity

Row | Sequence | polyreactivity (PSR sort gate)
23 | QVQLVESGGGLDQAGGSLRLSCAASGITFYDYAMGWYRQAPGKEREFVASITSSGGSTYYADSVKGRFTISRDNAKTTVYLQMNSLKPQDPAVYYCAARGYNPYGRKVGYWGQGTQVTVSS | high polyreactivity
24 | QVQLVESGGGLVQAGGSLRLSCAASGNIFVEYAMGWYRPAPGKERELVAAITNSGGRTHYSDSVKGRFTISRDNAKNTVYLQMNSLKPEDSEVYFCAAPTKYRSRRYYWGQGTQVTVSS | high polyreactivity
25 | QVQLVESGGGLVQAGGSLRLSCAASGSTFTRNTMGWYRQAPGKERELVAVISRRGGSTYYADSVKGRFTISRDNAKNTVYLQMNSLKPEDTAVYYCNTAAYRLQYEYWGQGTQVTVSS | high polyreactivity
26 | QVQLVESGGGLVQAGGSLRLSCAASGFTFPYYSMGWYRQAPGKERELVAAINRSGGTKYADSVKGRFTISRDNAKNTVYVQMNSLKPEDTAVYDCAADSFYSRSRYDYWGQGSQVTVSS | high polyreactivity
27 | QVQLVESGGGLVQAGRSLRLSCAASGRIFSYNAMGWYRQAPGKETELVAAITFSGGRTYYADSVKGRFTISRDNAKNTVYLQMNSLKPEDTAVYYCNAYWQGYGYDYWGQGTQVTVSS | low polyreactivity
28 | QVQLVESGGGLVQAGGSLRLSCAASGRIFQSYAMGWYRQAPGKERELVAGIRAGGGRTYYADSVKGRFTISRDNAKNTVYLQMNSLKPEDTAVYYCAAGGRPYKLDFTRSDYWGEGTQVTVSS | low polyreactivity
29 | QVQLVESGGGVVQAGGSLRLSCAASGRIFKSYAMGWYRPAPGKERELVASISYTGGSTYYAASVKGRFTISRDNAKNTVYLQMNRLKPEDTAVYDCAAKRVRSAGSYGYWGQGTQVTVSS | low polyreactivity
30 | QVQLVESGGGLVQAGGSLRLSCAASGSTFGRNAMGWYRQAPGKERELVAAISWRSTPTYYADSVKGRFTISRDNAKNTVYLQMNSLKPEDTAVYYCAVYYYYPSTNGYHYDYWGHGTQVTVSS | high polyreactivity
31 | QVQLVESGGGLVQAGGSLRLSCAASGRTFTSNGMGWYRQAPGKERELVAAITSGTSTYYADSVKGRFTISRDNAKNTVYLQMNSLKPEDTAVYYCNKLVPRGSSYSTVIRGGGYWGQGTQVTVSS | high polyreactivity
32 | QVQLVESGGGLVQAGGSLRLSCAASGYILGGNAMGWYRQAHGKERELDAVIRKSGGSTYADSVKGRFTISRDNAKNSVYLQMNSLKPEDTAVYYCNADTLAGVYFYQSDYWGQGTQVTVSS | low polyreactivity
33 | QVQLVESGGGLVQAGGSLRLSCAASGSTFTPYVMGWYRQAPGKEREVVAAISNVGRTYYADSVKGRFTISRDNAKNTVYLQMNSLKPEDTAVYYCAVRRDKNYYDWGQGTQVTVSS | high polyreactivity
34 | QVQLVESVGGLVQAGGSLRLSCSASGTFRRNVKGWYRQAPGKERELVAAIRSGGSTYYADSVKGRFTISRDNAKHTVFLQMNSLKPEDTAVYYCASDRPGHSFYDEWYRYDSWGQGTQVTVSS | low polyreactivity
35 | QVQLVESGGGLVQAGGSLRLSCAASGINFFVYDMGWYRQAPGKERELVAAITWSGDSTYYADSVKGRFTISRDNAKNTVYLQINSLKPVDSAVYYCAAQFDVYYSRQPYDYNRSGYWGQGTQVTVSS | low polyreactivity
36 | QVQLVESGGGLVQAGGSLRLSCAASGFTFWLYAMGWYRQAPGKEREFVAAISTSGGSTYADSVKGRFTISRDNAKNTVYLQMNSLKPEDTAVYYCNADPTTTTYRHQYNYWGQGTQVTVSS | low polyreactivity
37 | QVQLVESGVGLVQAGGSLRLSCAASGRTLGVYTMGWYRQAPGKERELVAAITTGGSTKYADSVKGRFTISRDNAKNTVYLQMNSLKPEDTAVYYCATDLVFDKRYWYDYWGQGTQVTVSS | low polyreactivity
38 | QVQLVESGGGLVQAGGSLRVSCAASGSTIITNAMGWYRQATGKERELVAAITYSTGATYYADSVKGRFTISRDNAKNTVYLQMNSQKPEDTACYYCAALLYFFMIDYWGQGTQETVSS | low polyreactivity
39 | QVQLVESGGGLVQAGGSLRLSCAASGFIFLAYTMGWYRPAPGKERELVAAISTSGGSTYYADSVKGRFTISRDNAKNTVYLQMNILKPEDTAVYYCAARYRWGRYDYWGQGTQVTVSS | high polyreactivity
40 | QVQLVDSGGGLVQAGGSLRISCAASGSIFPPYAMGWSRQAPGKERELVAAITYSGVRTYYADSVKGRFTISRDNAKNTVYLQMNSLKPEDTAVYYCAAVYRRGIGYPFGYWGQGTQVSVSS | high polyreactivity
41 | QVQLVESGGGLVQAGGSLRLSCAASGYIFYYYAMGWYRQAPGKERELVAAITFSGGSTYYADSVKGRFTISRDNAKNNVYLQMNRLKPEDTAGYYCAKVELRDAAELGSDEYDYWGQGTQVTVSS | low polyreactivity
42 | QVQLVESGGGLVQAGGSLRLSCAASGFIFDFYAMGWYRQAPGKERELVATINSSGTTNYADSVKGRFTISRDNAKNTVYLQMNSLKPEDTAVYYCATVEYLGHYTYDYWGQGTQVTVSS | low polyreactivity
43 | QVQLVESGGGLVQAGGSLRLSCAASGFTFYKNAMGWYRQAPGKERELVATISSGGSTYYADSVKGRFTISRYNAKNTVYLQLNSLKPEDTAVYYCAARVHHGYYSISYYYWGQGTQVTVSS | high polyreactivity
